The record followed here is article PMC8034648, “Oligomeric complexes formed by Redβ single strand annealing protein in its different DNA bound states”.

Data set [1] has as its target T1, Redβ single strand annealing protein (bacteriophage λ, UniProt P03698).
T1 sequence: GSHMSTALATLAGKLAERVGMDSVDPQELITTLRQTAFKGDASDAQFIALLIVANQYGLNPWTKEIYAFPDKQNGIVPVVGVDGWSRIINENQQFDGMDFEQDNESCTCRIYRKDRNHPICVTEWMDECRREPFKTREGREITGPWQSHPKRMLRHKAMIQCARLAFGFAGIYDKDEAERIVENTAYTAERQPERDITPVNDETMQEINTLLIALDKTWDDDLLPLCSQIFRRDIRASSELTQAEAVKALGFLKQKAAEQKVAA
The data set is described as follows: EMSA; strands added sequentially, either order; EMSA: 10 uM Redβ, 50 uM nt DNA, 37 C, in PBS, or 20 mM Tris-HCl pH 7.5/10 mM NaCl/10 mM MgCl2, or 50 mM ammonium acetate pH 7.0; SEC-MALS: PBS, complexes formed. The note with it: protein: recombinant; tags: N-terminal GSH left after thrombin removal of 6xHis; chain copies: 11; label: 5'-Cy5 on strand 1, 5'-Cy3 on strand 2; 5' overhangs 1 nt (49 bp).

Data set [2] addresses T1, Redβ single strand annealing protein. The data set is described as follows: SEC-MALS; PBS; 653 kDa, n=21.1; EMSA: 10 uM Redβ, 50 uM nt DNA, 37 C, in PBS, or 20 mM Tris-HCl pH 7.5/10 mM NaCl/10 mM MgCl2, or 50 mM ammonium acetate pH 7.0; SEC-MALS: PBS, complexes formed. The note with it: protein: recombinant; tags: N-terminal GSH left after thrombin removal of 6xHis; chain copies: 11. Background: SEC sorts molecules by how far they enter the pores of the column.

The target is the same in data set [3]. The data set is described as follows: native MS; strands added sequentially, 1 uM Redβ; 22 subunits, one copy of each strand; EMSA: 10 uM Redβ, 50 uM nt DNA, 37 C, in PBS, or 20 mM Tris-HCl pH 7.5/10 mM NaCl/10 mM MgCl2, or 50 mM ammonium acetate pH 7.0; SEC-MALS: PBS, complexes formed. The note with it: protein: recombinant; tags: N-terminal GSH left after thrombin removal of 6xHis; chain copies: 11; 3' overhang 4 nt on strand 2. In general terms: In EMSA bound probe runs differently from free probe, usually more slowly.

The target is the same in data set [4]. The data set is described as follows: SEC-MALS; strands added sequentially, PBS; 591 kDa, n=18.2; EMSA: 10 uM Redβ, 50 uM nt DNA, 37 C, in PBS, or 20 mM Tris-HCl pH 7.5/10 mM NaCl/10 mM MgCl2, or 50 mM ammonium acetate pH 7.0; SEC-MALS: PBS, complexes formed. The note with it: protein: recombinant; tags: N-terminal GSH left after thrombin removal of 6xHis; chain copies: 11; blunt.

For data set [5] the target is unchanged. Nature of the data set: SEC-MALS; strands added sequentially, PBS; 358 kDa, n=11.3; EMSA: 10 uM Redβ, 50 uM nt DNA, 37 C, in PBS, or 20 mM Tris-HCl pH 7.5/10 mM NaCl/10 mM MgCl2, or 50 mM ammonium acetate pH 7.0; SEC-MALS: PBS, complexes formed. To be noted: protein: recombinant; tags: N-terminal GSH left after thrombin removal of 6xHis; chain copies: 11; blunt.

B1: Cy5 50mer:Cy3 50mer (annealed sequentially or pre-formed) (dsDNA)
DNA 1: CCATCCGCAAAAATCGAGCTATGCAGGGCGATTCTGCTCTAAGCCATCCG
DNA 2: GCGGATGGCTTAGAGCAGAATCGCCCTGCATAGCTCGATTTTTGCGGATG
On to B1, for which the binding result in data set [1] is on record as “binds”.

B2: 83- (ssDNA)
DNA: TTGCATATTTAAAACATGTTGAGCTACAGCACCAGATTCAGCAATTAAGCTCTAAGCCATCCGCAAAAATGACCTCTTATCAA
B2: the binding result in data set [2] is “binds”.

B3: 83-:87+ (dsDNA)
DNA 1: TTGCATATTTAAAACATGTTGAGCTACAGCACCAGATTCAGCAATTAAGCTCTAAGCCATCCGCAAAAATGACCTCTTATCAA
DNA 2: TTGATAAGAGGTCATTTTTGCGGATGGCTTAGAGCTTAATTGCTGAATCTGGTGCTGTAGCTCAACATGTTTTAAATATGCAATGAC
Turning to B3, in data set [3], the binding result is reported as “binds”.

B4: 83-:83+ (dsDNA)
DNA 1: TTGCATATTTAAAACATGTTGAGCTACAGCACCAGATTCAGCAATTAAGCTCTAAGCCATCCGCAAAAATGACCTCTTATCAA
DNA 2: TTGATAAGAGGTCATTTTTGCGGATGGCTTAGAGCTTAATTGCTGAATCTGGTGCTGTAGCTCAACATGTTTTAAATATGCAA
Consider B4, for which, in data set [4], the binding result is given as “binds”.

B5: dT38:dA38 (dsDNA)
DNA 1: TTTTTTTTTTTTTTTTTTTTTTTTTTTTTTTTTTTTTT
DNA 2: AAAAAAAAAAAAAAAAAAAAAAAAAAAAAAAAAAAAAA
Take B5: the binding result in data set [5] is “binds”.
